Measurements: IntAct's records for PubMed 21169485

B1: Lipopolysaccharide export system protein LptC (Escherichia coli (strain K12)), P0ADV9 (parent)
chain: MSKARRWVIIVLSLAVLVMIGINMAEKDDTAQVVVNNNDPTYKSEHTDTLVYNPEGALSYRLIAQHVEYYSDQAVSWFTQPVLTTFDKDKIPTWSVKADKAKLTNDRMLYLYGHVEVNALVPDSQLRRITTDNAQINLVTQDVTSEDLVTLYGTTFNSSGLKMRGNLRSKNAELIEKVRTSYEIQNKQTQP
partner: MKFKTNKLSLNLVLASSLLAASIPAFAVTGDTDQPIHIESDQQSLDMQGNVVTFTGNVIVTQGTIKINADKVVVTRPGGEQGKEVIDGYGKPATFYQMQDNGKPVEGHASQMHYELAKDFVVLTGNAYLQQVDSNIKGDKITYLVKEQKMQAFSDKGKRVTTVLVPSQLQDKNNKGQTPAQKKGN

Variants of: B1
Conditions: with lpta_ecoli lptA

Row | Variant | effect of a mutation on the interaction
1 | G153R | disrupting interaction
